# B1: ADAMTS13 (A Disintegrin-like And Metalloprotease with ThromboSpondin type 1 motif) (protein)
# chain: AAGGILHLELLVAVGPDVFQAHQEDTERYVLTNLNIGAELLRDPSLGAQFRVHLVKMVILTEPEGAPNITANLTSSLLSVCGWSQTINPEDDTDPGHADLVLYITRFDLELPDGNRQVRGVTQLGGACSPTWSCLITEDTGFDLGVTIAHEIGHSFGLEHDGAPGSGCGPSGHVMASDGAAPRAGLAWSPCSRRQLLSLLSAGRARCVWDPPRPQPGSAGHPPDAQPGLYYSANEQCRVAFGPKAVACTFAREHLDMCQALSCHTDPLDQSSCSRLLVPLLDGTECGVEKWCSKGRCRSLVELTPIAAVHGRWSSWGPRSPCSRSCGGGVVTRRRQCNNPRPAFGGRACVGADLQAEMCNTQACEKTQLEFMSQQCARTDGQPLRSSPGGASFYHWGAAVPHSQGDALCRHMCRAIGESFIMKRGDSFLDGTRCMPSGPREDGTLSLCVSGSCRTFGCDGRMDSQQVWDRCQVCGGDNSTCSPRKGSFTAGRAREYVTFLTVTPNLTSVYIANHRPLFTHLAVRIGGRYVVAGKMSISPNTTYPSLLEDGRVEYRVALTEDRLPRLEEIRIWGPLQEDADIQVYRRYGEEYGNLTRPDITFTYFQPKPRQAWVWAAVRGPCSVSCGAGLRWVNYSCLDQARKELVETVQCQGSQQPPAWPEACVLEPCPPYWAVGDFGPCSASCGGGLRERPVRCVEAQGSLLKTLPPARCRAGAQQPAVALETCNPQPCPARWEVSEPSSCTSAGGAGLALENETCVPGADGLEAPVTEGPGSVDEKLPAPEPCVGMSCPPGWGHLDATSAGEKAPSPWGSIRTGAQAAHVWTPAAGSCSVSCGRGLMELRFLCMDSALRVPVQEELCGLASKPGSRREVCQAVPCPARWQYKLAACSVSCGRGVVRRILYCARAHGEDDGEEILLDTQCQGLPRPEPQEACSLEPCPPRWKVMSLGPCSASCGLGTARRSVACVQLDQGQDVEVDEAACAALVRPEASVPCLIADCTYRWHVGTWMECSVSCGDGIQRRRDTCLGPQAQAPVPADFCQHLPKPVTVRGCWAGPCVGQGTPSLVPHEEAAAPGRTTATPAGASLEWSQARGLLFSPAPQPRRLLPGPQENSVQSSACGRQHLEPTGTIDMRGPGQADCAVAIGRPLGEVVTLRVLESSLNCSAGDMLLLWGRLTWRKMCRKLLDMTFSSKTNTLVVRQRCGRPGGGVLLRYGSQLAPETFYRECDMQLFGPWGEIVSPSLSPATSNAGGCRLFINVAPHARIAIHALATNMGAGTEGANASYILIRDTHSLRTTAFHGQQVLYWESESSQAEMEFSEGFLKAQASLRGQYWTLQSWVPEMQDPQSWKGKEGT
# Molecular target: T1, recombinant His-tagged VWF73 peptide substrate labeled with two fluoresceins
# T1 chain: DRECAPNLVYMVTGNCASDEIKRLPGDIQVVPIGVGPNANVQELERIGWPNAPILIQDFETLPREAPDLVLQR
protein,measurement,value
B1,"fluorescence of the recombinant peptide during incubation (FRET self-quenching cleavage assay, 96 well plate, fluorometer)","With normal pooled plasma (PNP), there is steady increase of fluorescence over time"
